Here are results for two proteins from doi:10.1101/2022.11.05.515281v1.

Common to all, as to assay: purified protein, by the assay type
Substrate in data set [1]: CC1=CC(=O)[C@H]2C[C@@H]1C2(C)C
Substrate in data set [2]: C=C(C)[C@H]1CC=C(C)C(=O)C1
Substrate in data set [3]: CC1=CC(=O)CC(C)(C)C1=O
Substrate in data set [4]: CC1=CCCC1=O
Substrate in data set [5]: COC(=O)C1=CCCCC1
Substrate in data set [6]: CC1=CC(=O)CC1
Substrate in data set [7]: O=[N+]([O-])C1=CCCCC1

B1: MSMEG_2027 (Mycolicibacterium smegmatis MC2 155) (protein)
chain: MTDAELSPTDWVREQTERILEQGTTDGVHVLDRPIVLFTTTGAKSGKKRYVPLMRVEENGKYAMVASKGGDPKHPSWYFNVKANPTVSVQDGDKVLPDRTARELEGEEREHWWKLAVEAYPPYAEYQTKTDRLIPVFIVE
In general, Km refers to the concentration of substrate that gives half-maximal velocity. For orientation: kcat means the number of substrate molecules converted per active site and unit of time at saturation. For orientation: kcat/Km means the second-order rate constant that governs catalysis at low substrate concentration. Turning to B1, the Km was 2583 ± 667.2 µM in data set [1], 3099 ± 916.4 µM in data set [2], 4550 ± 360.6 µM in data set [3] and 1514 ± 111 µM in data set [4]. For the same protein, the kcat was 0.048 ± 0.0049 s⁻¹ in data set [1], 0.12 ± 0.0114 s⁻¹ in data set [2], 0.459 ± 0.013 s⁻¹ in data set [3] and 0.783 ± 0.0157 s⁻¹ in data set [4]. The kcat/Km in data set [1] was 18.6 ± 3.22 M⁻¹ s⁻¹; in data set [2], 38.7 ± 8.62 M⁻¹ s⁻¹; in data set [3], 101 ± 5.7 M⁻¹ s⁻¹; in data set [4], 517 ± 30.8 M⁻¹ s⁻¹.

B2: MSMEG_2850 (Mycolicibacterium smegmatis MC2 155) (protein)
chain: MTEAIDWDQMNNQVIKEFRETGGKAGGLFEGSPLVLVHHTGAKSGKQRIAPLVPLLDGDRIYIFGSKGGADSHPDWYHNLVANPDTVVELGTETFPVKARVLTGAERDEIYAKQVAVAPQFGDYQRKTTRVIPVVELQRV
Take B2: in data set [5], the Km amounted to 4355 ± 312.6 µM, the catalytic constant (kcat) stood at 0.279 ± 0.0071 s⁻¹ and the catalytic efficiency (kcat/Km) was determined as 64.1 ± 3.29 M⁻¹ s⁻¹. Further, in data set [6], the Michaelis constant (Km) was 862 ± 508 µM, the kcat turned out to be 0.018 ± 0.0026 s⁻¹ and the specificity constant (kcat/Km) stood at 21 ± 10.5 M⁻¹ s⁻¹. Besides, in data set [7], the Michaelis constant (Km) turned out to be 1739 ± 136.9 µM, the catalytic constant (kcat) came out at 1.07 ± 0.0295 s⁻¹ and the kcat/Km came to 617 ± 35 M⁻¹ s⁻¹.
